From the supplement of paper PMC10567573

B1: EPB41L3 (parent)
chain: SDYISEFRFAPNHTKELEDKVIEL
B2: ZNF263 (parent)
chain: QRTHTGEKPYKCPECGEIFAHSSN

Variants of: B1
Experiment: protein stability index of a GFP-peptide fusion (GPS, HEK-293T) (PSI 1-6); higher = more stable
Conditions: c terminus: a fixed tail appended
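Further: lentivirally expressed fusions sorted by FACS into six bins by GFP to DsRed ratio, PSI derived from sequencing read proportions per bin multiplied by bin number.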

Protein stability index of substitutions, site by site:
K20: P 2.2, D 2.71, I 3.7, Y 1.87, G 1.93, V 2.02, M 1.8, W 1.4, Q 1.89
H13: P 1.99, R 1.94, E 3.3, W 1.72, G 2.16, A 2.84, F 1.92, V 1.59
I4: F 2.77, Y 3.65, L 2.36, C 3.6, M 3.18, V 3.02, T 2.65, K 3.23, Q 3.98, E 3.92, N 4.27, R 3.13
D19: V 2.09, F 3.65, M 2.03, I 2.71, S 2.81, E 1.77, P 2.19, Y 1.36
Y3: K 2.69, C 2.38, S 3.59, I 1.86, Q 3.28, H 2.91, W 2.39, N 3.18, T 3.06, P 2.4, D 4.03, E 4.43, G 2.94
E6: L 1.84, K 1.85, G 2.28, N 1.83, M 1.92, A 1.67, F 1.52, V 2.06, P 2.43, T 1.82, D 1.93
E18: A 2.05, D 1.49, K 2.08, T 1.73, Y 1.77, W 1.56, H 2.77, V 2.07, S 2.32, P 1.47, Q 2.42, N 1.81, R 2.34
P11: S 2.26, W 2.33, T 2.82, L 2.11, I 2.49, Y 1.8, N 2.26, M 2.65, A 2.68, Q 2.57, H 1.88, K 2.3
E16: C 2.17, I 2.08, R 2.66, P 1.57, V 1.89, L 2.37, Y 2.56, T 1.54
D2: F 2.02, S 2.11, P 2.29, V 2.02, I 1.9, Y 1.75, H 1.85, M 2.25, A 2.21, K 2.45, G 1.45, Q 1.62, E 2.48, L 2.18
F7: R 4.4, C 4.2, L 3.6, H 4.26, I 3.94, G 4.91, D 4.89, P 4.75, A 4.4, M 4, E 4.96, S 4.12
L24: I 2.12, H 2.65, P 2.31, A 2.42, Y 2.08, F 2.31, M 2.16, S 2.69, Q 2.71, N 2.25
A10: V 1.84, I 2.33, L 3.45, N 3.33, P 3.96, E 4.21, C 1.56, H 1.86, W 2.96
I22: D 2.88, F 1.74, Y 2.29, L 2.28, H 2.55, Q 2.92, A 3.26, P 2.58, R 3.03, G 2.79, T 2.56, N 2.74
T14: K 1.4, G 1.88, N 2.25, D 2.49, W 2.18, F 1.97, V 2.42, Y 2.06, P 1.37, M 2.65, Q 2.55, H 1.68
V21: W 2.14, A 2.31, E 2.54, N 2.38, F 3.22, Q 1.99, Y 2.14, I 2.22, C 1.88, K 2.15, H 1.85, R 1.78, T 2.18, D 2.96, G 2.37, L 2.48
K15: Q 2.34, N 2.12, F 2.15, W 1.77, A 1.9, M 2.25, P 2.29, D 2.49, R 1.74, E 3.46, S 2.07, V 2.04
R8: S 4.3, A 3.7, K 4.26, N 3.94, D 4.51, F 2.04, P 4.4, G 4.38, W 3.17, Y 3.31, M 3.49
S5: H 2.15, R 2.62, F 1.74, M 1.27, P 2.24, N 2.22, V 2.19, T 2.18
L17: Y 2.59, H 1.84, K 2.07, T 1.98, Q 2.18, S 1.84, C 2.05, D 2.51, W 1.77, R 1.27
E23: T 1.96, W 1.46, H 2.18, K 1.75, R 2.02, N 1.42, Q 2.05, S 2.09, M 1.92
N12: M 1.89, Y 2.1, F 1.9, C 1.47, Q 2.35, I 1.82, T 2.2, G 1.83, W 1.5, R 1.43, K 2.18, E 3.54, S 2.21
S1: C 1.75, V 1.74, E 2.15, N 1.94, Y 2.38, H 2.1, A 2.38, D 2.25, G 2.12, I 1.71, Q 2.45
F9: H 4.41, D 4.97, I 3.83, E 4.97, S 4.79, T 4.24, K 4.29, Y 2.25, Q 4.63, N 4.59, L 4.09

Variants of: B2
Experiment: as above
Conditions: c terminus: a fixed tail appended

Protein stability index: each site, then its substitutions
H4: L 3.4, F 3.37, Q 3.52, N 3.28, K 3.77, C 3.29, G 3.25, I 3.01, P 3.27, D 3.98, A 2.92, E 3.02, M 3.44
Q1: T 2.82, K 2.72, E 3.46, Y 2.57, S 3.14, R 2.97, M 2.71, V 2.85, W 2.01, G 3.06, F 2.74, D 3.36, N 3.46, H 3.6, A 2.49, I 2.54, L 2.76, C 4.76, P 3.7
T3: R 2.85, A 3.55, Y 2.58, K 3.28, M 3.43, E 3.51, N 3.79, W 2.53, I 2.93, H 3.51, F 2.67, D 3.5, L 3.31, P 3.37, G 4.28, V 3.04, C 3.27, S 3.43, Q 2.86
R2: G 4.29, Q 3.3, I 3.32, E 3.78, K 2.92, D 4.06, V 2.88, A 3.34, H 4.35, P 3.77, S 3.88, W 2.9, L 3.6, Y 3.02, T 3.45, C 4.86, N 4.07, M 2.62, F 2.82
